Measured values reported in the nanobody polyreactivity screen of Harvey et al. (2022).

Test: yeast display, Sf9 membrane polyspecificity reagent, FACS + sequencing; frameworks hold sequencing errors
Method in brief: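 After 36–48 hours of galactose induction, yeast (Saccharomyces cerevisiae BJ5465) displaying a synthetic nanobody library were stained at 4 °C for 1 hour with 10% biotinylated, detergent-solubilized Sf9 membrane reagent. Streptavidin microbeads enriched the stained cells before FACS sorting into low and high (top ~1%) gates on anti-HA and streptavidin fluorescence. Each clone's polyreactivity label reflects its gate of origin.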

Sequence | polyreactivity (PSR sort gate)
QVQLVESGGGLVQAGGSLRLSCAASGFTFGENDMGWYRQAPGKERELVATISYSGDSTYYAVSVKGLFTISRVNGKNTVYLHMNSLKPEDTAVYYCAAPLPHRVYDEGYWRQGTQVTVSS | low polyreactivity
QVQLVESGGGLVQAGGSLRLSCAASGFTFGFNTMGWYRQAPGKERELVATITSGGSTYYADSVKGRFTISRDNAKNTVYLQMNILKPEDTAVYYCAATAGSPWAKSRYGYWGQGTQVTVSS | low polyreactivity
QVQLVESGGGLVQAGGSLRLSCAASGFTFGFYAMGWYRQAPGEEWELVATISSAGSTTYADSVKGRFTLSRDNAKHTVYLQMNSLKPEETAVYYCATRRWSWPQFRTGDYWGQGTQVTVSS | high polyreactivity
QVQLVESGGGLVQAGGSLRLSCAASGFTFGFYAMGWYRQAPGKERELVATINYNGGSTYYADSVKGRFTISRDNAKNTVYLEMNSLKPEDTAVYYCATDYGWAPSYWYDSCGQGTQVTVSS | low polyreactivity
QVQLVESGGGLVQAGGSLRLSCAASGFTFGHYAMGRYRQAPGKERELVAAIRWSGGSTYYADSVKGRFTISRDNAKNTVYLQMNSLKPEDTAVYYCAADGEDSLWTGYDYDYWGQGTQVTVSS | low polyreactivity
QVQLVESGGGLVQAGGSLRLSCAASGFTFGHYAMGWDRQAPGKERELVAAISSGDRTYYADSVKGRFTISRDNAKNTVYLQMNSLKPEDTAVYSCNAVYYSWAQSARFDYWGQGTQVTVSS | low polyreactivity
QVQLVESGGGLVQAGGSLRLSCAASGFTFGHYAMGWYRQAPGKERELVAAIRWSGGSTYYADSVKGRITISRDHAKNTVYLQMNSLKPEDTAVYYCGARRFDGYDYDYWGQGTQVTESS | low polyreactivity
QVQLVESGGGLVQAGGSLRLSCAASGFTFGKYDMGWYRQAPGKERELVATITSSGDSTYYADSVKGRFTISRDNAKNTVYLQMNSLKPEDTAVYYCATPYGRHGWFYLYDYWGQGTQVTVSS | low polyreactivity
QVQLVESGGGLVQAGGSLRLSCAASGFTFGLNAMGWYRQAPGKERELVAGISRNGGRTYYADSVKGRFTISRDNAKNTVYLQMNSLKPDDTAVYYCNKVVSTYWTKSRVQWRYSRYDYWGQGTQVTVSS | high polyreactivity
QVQLVESGGGLVQAGGSLRLSCAASGFTFGNNAMGWYRQAPGKERELVAGISRTGGRTYYADSVKGRFTISRDNAKNTVYLQMNSLKPEDTAVYYCNAVSTLYTGYDYWGQGTQVTVSS | high polyreactivity
QVQLVESGGGLVQAGGSLRLSCAASGFTFGNNAMGWYRQAPGTERELVAAISYGGGRTYYADSVKGRFTISRDNAKNTVYLQMNSLKPEDTAVYYCAKDPKYPLSGGYDYWGQGTQVTVSS | low polyreactivity
QVQLVESGGGLVQAGGSLRLSCAASGFTFGNYAMGWYRQAPGKERELVAVISRSGGNTYYADSVKGRFTISRDNAKNTVYLQMNSLKPEDTAVYYCAATLVGKVFRRFDYWGQGTQVTVSS | high polyreactivity
QVQLVESGGGLVQAGGSLRLSCAASGFTFGPNTMGWYRQAPGKERELVAAISARGGRTYYADSVKGRFTISRDTAKNTVYLQMNSLKPEDTAVYYCAAPGYVRTGVTYGGYYWGQGTQVTVSS | high polyreactivity
QVQLVESGGGLVQAGGSLRLSCAASGFTFGPYTMGWYRQAPGKERELVAAISRSGTGTYYADSVKGRFTISRDNAKNTVYLQMNSLKPEDTAVYYCAADNGDNHGYYWGQGTQVTLSS | high polyreactivity
QVQLVESGGGLVQAGGSLRLSCAASGFTFGRNAIVWYRQAPGKERELVASIDWSGGSTYYADSVKGRFTISRDNAKNTVYLQMNSLKPEDTAVYYCAVGPNSVGNRSYGFDYWGQGTQVTVSS | low polyreactivity
QVQLVESGGGLVQAGGSLRLSCAASGFTFGRYAMGWYRQAPGKEREFVAAITWSGGGTYYADSVKGRFTISRDNAKNTVYLQMNSLKPEDTAVYYCAADRRAYGGGYWGQRTQVTVSS | high polyreactivity
QVQLVESGGGLVQAGGSLRLSCAASGFTFGRYAMGWYRQAPGKERELLAGITWSGGSTSYADSVKGRFTISRDNAKNTVYFQMNSLKPEDTAVYYCATRARYTRVQGRRYAYDYWGQGTQVTVSS | high polyreactivity
QVQLVESGGGLVQAGGSLRLSCAASGFTFGRYAMGWYRQAPGKERELVAAINYTDGSTYYADSVKGRFTISRDNAKNTVYLQMNSLKPEDTAGYYCAATTLSFEGGKYWSKYDYWGQGTQVTVSS | low polyreactivity
QVQLVESGGGLVQAGGSLRLSCAASGFTFGRYAMGWYRQAPGKERELVAAISFSGGRTYYADSVKGRFTISRDNAKNTVYLQMNSLKPEDTAVYYCNTAYWYSLYDYWGQGTQVTVSS | high polyreactivity
QVQLVESGGGLVQAGGSLRLSCAASGFTFGRYAMGWYRQAPGKERELVAAITRGSGGTYYADSVKGRFTISRDNAKNTVYLQMNSLKPEDTAVYYCATGSRSRGALRYAHFDYWGQGTQVTESS | high polyreactivity

Sequence | polyreactivity (PSR sort gate)
QVQLVESGGGLVQAGGSLRLSCAASGFTFGRYAMGWYRQAPGKERELVAAITWSGGTTTYYADSVKGRFTISRDNAKNTVYLQMTSLKPEDTAVYYCAADLYFYIYSYNYWGQGTQVTVSS | low polyreactivity
QVQLVESGGGLVQAGGSLRLSCAASGFTFGRYAMGWYRQAPWKERELVADITWSGGSTYYADSVKGRFSISRDFAKNTVYLQMNSLKPEDTAVYYCNRLSKNREYDYWGQGTQVNVSS | high polyreactivity
QVQLVESGGGLVQAGGSLRLSCAASGFTFGSNAMGWYRQAPGKERELVAAISWSGGRTYYADSVKGRFTISRDNAKNTVYLQMNSLKPEDTAVYYCNKQYVKPWYRGYYYWGQGTQVTVSS | high polyreactivity
QVQLVESGGGLVQAGGSLRLSCAASGFTFGSNTMGWYRQAPGKERELVAAITTSGDSTYYADSVKGRFTISRDNAKNTVYLQMNSLKPEDTAVYYCAAERRYGRYYRLVRLLGQGTQVTVSS | high polyreactivity
QVQLVESGGGLVQAGGSLRLSCAASGFTFGSYAMGWYRQAPGKEREFVAAIRRSGSSTYYADSVKGRFTISRDNAKNTVYLQMTSLKPEDTAVYYCAADVYRRLRRYRYYYWGQGTQVTVSS | low polyreactivity
QVQLVESGGGLVQAGGSLRLSCAASGFTFGSYAMGWYRQAPGKEREFVAAISLGGARTYYADSVKGRFTISRDNAKNTVYLQMNSLKPEDTAVYYCNARGIGRSTKWSSRDYWGQGTQVTVSS | high polyreactivity
QVQLVESGGGLVQAGGSLRLSCAASGFTFGSYAMGWYRQAPGKERELVAAISTSGDTTYYADSVKGRFTISRDNAKNTVYLQMNSLKPEDTAVYYCAAYDWGWPYTLIPFYYWGQGTQVTVSS | low polyreactivity
QVQLVESGGGLVQAGGSLRLSCAASGFTFGSYAMGWYRQAPGKERELVAGITFSTGTTSYADSVKGRFTISRDNAKTTVYLQMNSLKPEDTAVYYCAADLIPNEDYWGQGTQVTVSS | low polyreactivity
QVQLVESGGGLVQAGGSLRLSCAASGFTFGSYAMGWYRQAPGKERELVAVITRSGRTNYADSVKGRFTISRDTAKNTVYLQMNSLKPEDTAVYYCNADDVDDEVSPELTEMDYWGQGTQVTVSS | low polyreactivity
QVQLVESGGGLVQAGGSLRLSCAASGFTFGSYTMGWYRQAPGKERELVAAITGRGGSTYYADSVKARFTISRDNAKNTVYLQMNSLKPVDTAVYYCAGRRGTTYVGYDYWGQGTQVTVSS | high polyreactivity
QVQLVESGGGLVQAGGSLRLSCAASGFTFGTYAMGWYRQAPGKERELVAGITSGDGTYYADSVKGRFTISRDNAKNTVYLQMNSLKPEDTAVYYCAVVHYQQYSWRVYFYPYDYWGQGTQVTVSS | high polyreactivity
QVQLVESGGGLVQAGGSLRLSCAASGFTFGVYAMGWYRQAPGKERELVAAISTTVGSTYYADSVKGRFTISRDNAKNTVYLQMNSLKPEDTAVYYCNADGYPDVGAGTYGYWGQGTQVTVSS | low polyreactivity
QVQLVESGGGLVQAGGSLRLSCAASGFTFGWYTMGWYRPAPGKERELVAAISLNGGSTYYADSVKGRFTISRDNAKNTVYLQMNSLKPEDTAVYYCAIGYRWPYYPYDYWGQGTQVTVSS | low polyreactivity
QVQLVESGGGLVQAGGSLRLSCAASGFTFGWYTMGWYRQAPGKEREFVAAISWSGTSTYYADSVKGRFTISRDNAKNTVYLQMNSLKAEDTAVYYCNKLRRGDMEYWGQGTQVTVSS | high polyreactivity
QVQLVESGGGLVQAGGSLRLSCAASGFTFGYNAMGWYRQAPGKERELVAAISWSGGTYYADSVKGRFTISRDNAKNTVYLQMNSLKPEDTAVYYCAAVVVYWTSQIYYDGYYYWGQGTQVTVSS | high polyreactivity
QVQLVESGGGLVQAGGSLRLSCAASGFTFGYYTMGWYRQAPGKERELVAAISSGGSTNYADSVKGRFTISRDNAKNTVYLQMNSLKPEDTAVYYCTATQIGPYYLPFDSWGQGTQVTVSS | high polyreactivity
QVQLVESGGGLVQAGGSLRLSCAASGFTFGYYTMGWYRQAPGKERELVAAISWRGGRTYYADSVKGRFTISRDNAKNTVYLQMNSLKPEDTAVYYCAAEYTYGWTYRPFDYWGQGTQVTVSS | high polyreactivity
QVQLVESGGGLVQAGGSLRLSCAASGFTFHKNAMGWYRQAPGKERELVAAITNRGGSTYYADSVKGRFTISRDNAKNTVYLQMNSLKPEDTAVYYCAAELRPYITYVGPRKKFYYWGQGTQVTVSS | high polyreactivity
QVQLVESGGGLVQAGGSLRLSCAASGFTFHNYAMGWYRQAPGKERELVAAITWDGGSTYYADSVKGRFTISRDNEKNTVDLQLNRLKPEDTAVYYCALDQYYYYYADYNFDYWGQGTQVTVSS | high polyreactivity
QVQLVESGGGLVQAGGSLRLSCAASGFTFHNYAMGWYRQAPGKERELVAVIRWRGGSTYYADSVKGRFTISRDNAKNSVYLQMNSLKPEDTAFYYCAKRARGSYYWGYNYWGQGTQVTVSS | high polyreactivity
